In patent publication US12201699, “Compositions and methods for promoting homology directed repair” (Editas Medicine, Inc.):

Biological target: Tet Repressor (TetR) (UniProt P04483 P04483:1-207)
Assay: EMSA; lacks Tet operator; 500 nM TetR, 50 nM DNA, 300 mM NaCl, pH 7.7
Conditions: chain copies: 2 (inferred)
Description: The nucleotide sequence to which the Tet Repressor protein binds, typically consists of several repeats (5 or more) of the Tet Operator (TetO)19 base pair sequence, each followed by a 17 bp spacer. Here, we evaluated the binding of the Tet repressor protein to several Tet Operator sequence-containing variants that included spacer sequences of differing sizes, or no spacer sequences. Specifically, we investigated […] To test the binding capacity of the Tet Operator sequence-containing variants experimentally, 500 nM of recombinant TetR protein (Imgen BioSciences, Inc.; Cat. No. P-1002-0.5 mg) was incubated with 50 nM of template DNA in binding buffer (50 mM HEPES, 20% glycerol, 300 mM NaCl, pH 7.7) and protein binding to the Tet Operator sequence-containing variants was analyzed using an electrophoretic mobility shift assay using a 10% polyacrylamide gel (FIG. 8B).

Chain of Tet Repressor (TetR) (P04483 whole entry, one chain of several): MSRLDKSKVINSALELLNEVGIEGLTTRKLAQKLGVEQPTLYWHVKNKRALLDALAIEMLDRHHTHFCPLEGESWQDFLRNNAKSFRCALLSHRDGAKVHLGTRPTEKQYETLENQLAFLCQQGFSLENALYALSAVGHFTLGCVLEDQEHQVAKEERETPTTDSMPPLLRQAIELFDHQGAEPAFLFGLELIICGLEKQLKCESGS

Row | Binder | binding result
1 | ssODN-109 (control) (ssDNA) DNA: AACAGACACCATGGTGCATCTGACTCGTGTGGAGAAGTCGGCCGTTACTGCCCTGCAGGGCAAGCTTAACGTGGATGAAGTTCGTGGTGAGGCCCTGGGCAGGTTGGTA | no binding
2 | ssODN-179 (control) (ssDNA) DNA: TGCTTCTGACACAACTGTGTTCACTAGCAACCTCAAACAGACACCATGGTGCATCTGACTCGTGTGGAGAAGTCGGCCGTTACTGCCCTGCAGGGCAAGCTTAACGTGGATGAAGTTCGTGGTGAGGCCCTGGGCAGGTTGGTATCAAGGTTACAAGACAGGTTTAAGGAGACCAATAG | no binding
